# Measured values reported in publication PMC9145765, “Identification and Molecular Characterization of the Operon Required for L-Asparagine Utilization in Corynebacterium glutamicum” (Microorganisms, 2022).
# Columns and labels:
# [1] = system: T1, AnsR (Corynebacterium glutamicum R (JCM 18229)), ORF:3b2fc73c; assay: EMSA; settings: 20 mM Tris-HCl pH 8.0, 100 mM NaCl, 3 mM MgCl2, 5 mM CaCl2, 0.1 mM EDTA, 0.1 mM DTT, 10% glycerol, 0.15 mg/mL BSA, room temperature, 25 min; 5% PAGE in 0.5x …
# T1 sequence: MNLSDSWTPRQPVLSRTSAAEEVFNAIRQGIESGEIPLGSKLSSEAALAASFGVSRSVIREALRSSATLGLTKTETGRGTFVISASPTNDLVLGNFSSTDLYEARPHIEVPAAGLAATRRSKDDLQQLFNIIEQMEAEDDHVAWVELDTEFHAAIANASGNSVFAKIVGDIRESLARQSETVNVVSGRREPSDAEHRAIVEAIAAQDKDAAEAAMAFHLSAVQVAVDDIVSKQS
# AnsR = biological target: T2, AnsR (Corynebacterium glutamicum, UniProt A0AB72VEC9); assay: EMSA, release of promoter DNA from His-tagged AnsR; settings: effector abolishing operator DNA binding; […] L-Asn preincubated […] min; pH […]; room temperature
# T2 construct: gene cgR_2807; His-tagged (pColdI, plasmid pCRC667), E. coli BL21(DE3), Ni-NTA; annotated start codon is wrong, true start is the ATG 12 nt downstream
# T2 sequence (A0AB72VEC9 5-238 limits assumed): T1 sequence
Compound,binding [1],"EMSA, release of promoter DNA from His-tagged AnsR (AnsR)"
GTTCATGGTGAACATCATGCATTGTGATGCACCTTACGTCAAGGACTTCTTGTTAAGTGATTCTCTTTGTGCAGGTTATGGCAATAAAAAGAACCTGCCCCGAAAAGGGAACAGGCTCTTTTTTCGGTAAGGGTTAAGCCAATGAAGCAAGTCCGAACATTGCGTAAGCCATGATGAAACCAACGATGGCAATACAGGTCTGGTTCACGGTCCAG (double strand) [probe -209 to +6],no binding,
NC(=O)C[C@H](N)C(=O)O [L-Asn],,L-Asn inhibited the binding of AnsR to the site
